Assay results as given in patent US20240252592A1 (TIANJIN INSTITUTE OF PHARMACEUTICAL RESEARCH, published 2024).
Residue numbers refer to the chain shown, from its start. Values belong to the binder of their own block, whether it stands above or below them. Numbered stars: 1 amine (or outer) side, 2 acyl side, 3 side chain; on linkers, the order of the positions; unused ones are H or OH. Square brackets hold non-standard residues; d marks the D form. Side chains are listed from the residue outwards. Ends that are not written are not given here. * marks the point of attachment. C20 diacid = O=C(O)CCCCCCCCCCCCCCCCCCC(=O)*; C18 diacid = O=C(O)CCCCCCCCCCCCCCCCC(=O)*; γGlu = O=C(O)[C@H](CCC(=O)[*:2])N[*:1]; Palmitoyl = CCCCCCCCCCCCCCCC(=O)*; AEEA = NCCOCCOCC(=O)O; Aib = CC(C)(N)C(=O)O

Assays:
[1] = biological target: human GLP-1 receptor (human, UniProt P43220 24-463); test: cell-based or functional assay
[2] = biological target: GC receptor; test: cell-based or functional assay

EC50 of GLP-1 receptor mediated cAMP production [1]: 0.076 nM | EC50 of GC receptor mediated cAMP production [2]: 0.033 nM
Binder: H[Aib]QGTFTSDK([AEEA-AEEA-γGlu-C20 diacid])SKYLDERAAKEFVAWLEAGGPSSG-NH2 (not fully specified; printed as HAibQGTFTSDK***SKYLDERAAKEFVAWLEAGGPSSG-Amid) [Compound 13]

EC50 of GC receptor mediated cAMP production [2]: 0.076 nM
Binder: H[Aib]QGTFTSDK([AEEA-AEEA-γGlu-C20 diacid])SKYLDERAAKEFIAWLEAGGPSSG-NH2 (not fully specified; printed as HAibQGTFTSDK***SKYLDERAAKEFIAWLEAGGPSSG-Amid) [Compound 77]

EC50 of GC receptor mediated cAMP production [2]: 0.087 nM
Binder: H[Aib]QGTFTSDK([AEEA-AEEA-γGlu-C18 diacid])SKYLDERAAKEFIAWLEGGPSSG-NH2 (not fully specified; printed as HAibQGTFTSDK**SKYLDERAAKEFIAWLEGGPSSG-Amid) [Compound 75]

EC50 of GC receptor mediated cAMP production [2]: 0.036 nM
Binder: H[Aib]QGTFTSDK([AEEA-AEEA-γGlu-C20 diacid])SKYLEERAAKEFIAWLEAGGPSSG-NH2 (not fully specified; printed as HAibQGTFTSDK***SKYLEERAAKEFIAWLEAGGPSSG-Amid) [Compound 35]

Continued, binder first:

Binder: H[Aib]QGTFTSDK([γGlu-γGlu-Palmitoyl])SKYLEERAAKEFVEWLEGGPSSG-NH2 (not fully specified; printed as HAibQGTFTSDK*SKYLEERAAKEFVEWLEGGPSSG-Amid) [Compound 7]
EC50 of GLP-1 receptor mediated cAMP production [1]: 0.72 nM

Binder: H[Aib]QGTFTSDK([AEEA-AEEA-γGlu-C18 diacid])SKYLEERAAKEFIAWLEGGPSSG-NH2 (not fully specified; printed as HAibQGTFTSDK**SKYLEERAAKEFIAWLEGGPSSG-Amid) [Compound 6]
EC50 of GC receptor mediated cAMP production [2]: 0.052 nM

B1: Compound 5 (peptide)
peptide: HXQGTFTSDKSKYLXERAAKEFVXWLEGGPSSG
HELM: PEPTIDE1{H.[Aib].Q.G.T.F.T.S.D.K.S.K.Y.L.E.E.R.A.A.K.E.F.V.E.W.L.E.G.G.P.S.S.G.[am]}|PEPTIDE2{[CCCCCCCCCCCCCCCC(=O)[*:2]].[gGlu].[gGlu]}$PEPTIDE1,PEPTIDE2,10:R3-3:R2$$$V2.0; N-terminus assumed
SMILES: CCCCCCCCCCCCCCCC(=O)N[C@@H](CCC(=O)N[C@@H](CCC(=O)NCCCC[C@H](NC(=O)[C@H](CC(=O)O)NC(=O)[C@H](CO)NC(=O)[C@@H](NC(=O)[C@H](Cc1ccccc1)NC(=O)[C@@H](NC(=O)CNC(=O)[C@H](CCC(N)=O)NC(=O)C(C)(C)NC(=O)[C@@H](N)Cc1c[nH]cn1)[C@@H](C)O)[C@@H](C)O)C(=O)N[C@@H](CO)C(=O)N[C@@H](CCCCN)C(=O)N[C@@H](Cc1ccc(O)cc1)C(=O)N[C@@H](CC(C)C)C(=O)N[C@@H](CCC(=O)O)C(=O)N[C@@H](CCC(=O)O)C(=O)N[C@@H](CCCNC(=N)N)C(=O)N[C@@H](C)C(=O)N[C@@H](C)C(=O)N[C@@H](CCCCN)C(=O)N[C@@H](CCC(=O)O)C(=O)N[C@@H](Cc1ccccc1)C(=O)N[C@H](C(=O)N[C@@H](CCC(=O)O)C(=O)N[C@@H](Cc1c[nH]c2ccccc12)C(=O)N[C@@H](CC(C)C)C(=O)N[C@@H](CCC(=O)O)C(=O)NCC(=O)NCC(=O)N1CCC[C@H]1C(=O)N[C@@H](CO)C(=O)N[C@@H](CO)C(=O)NCC(N)=O)C(C)C)C(=O)O)C(=O)O
EC50 of GLP-1 receptor mediated cAMP production [1]: 0.26 nM

B2: Compound 3 (peptide)
peptide: HXQGTFTSDKSKYLEERAAKEFVAWLKEGGPSSG
HELM: PEPTIDE1{H.[Aib].Q.G.T.F.T.S.D.K.S.K.Y.L.E.E.R.A.A.K.E.F.V.A.W.L.K.E.G.G.P.S.S.G.[am]}|PEPTIDE2{[CCCCCCCCCCCCCCCC(=O)[*:2]].[gGlu].[gGlu]}$PEPTIDE1,PEPTIDE2,10:R3-3:R2$$$V2.0; N-terminus assumed
SMILES: CCCCCCCCCCCCCCCC(=O)N[C@@H](CCC(=O)N[C@@H](CCC(=O)NCCCC[C@H](NC(=O)[C@H](CC(=O)O)NC(=O)[C@H](CO)NC(=O)[C@@H](NC(=O)[C@H](Cc1ccccc1)NC(=O)[C@@H](NC(=O)CNC(=O)[C@H](CCC(N)=O)NC(=O)C(C)(C)NC(=O)[C@@H](N)Cc1c[nH]cn1)[C@@H](C)O)[C@@H](C)O)C(=O)N[C@@H](CO)C(=O)N[C@@H](CCCCN)C(=O)N[C@@H](Cc1ccc(O)cc1)C(=O)N[C@@H](CC(C)C)C(=O)N[C@@H](CCC(=O)O)C(=O)N[C@@H](CCC(=O)O)C(=O)N[C@@H](CCCNC(=N)N)C(=O)N[C@@H](C)C(=O)N[C@@H](C)C(=O)N[C@@H](CCCCN)C(=O)N[C@@H](CCC(=O)O)C(=O)N[C@@H](Cc1ccccc1)C(=O)N[C@H](C(=O)N[C@@H](C)C(=O)N[C@@H](Cc1c[nH]c2ccccc12)C(=O)N[C@@H](CC(C)C)C(=O)N[C@@H](CCCCN)C(=O)N[C@@H](CCC(=O)O)C(=O)NCC(=O)NCC(=O)N1CCC[C@H]1C(=O)N[C@@H](CO)C(=O)N[C@@H](CO)C(=O)NCC(N)=O)C(C)C)C(=O)O)C(=O)O
EC50 of GLP-1 receptor mediated cAMP production [1]: 20.8 nM | EC50 of GC receptor mediated cAMP production [2]: 0.1 nM

B3: Compound 2 (peptide)
peptide: B2 peptide with E15X, A24X, K27E, E28A
HELM: PEPTIDE1{H.[Aib].Q.G.T.F.T.S.D.K.S.K.Y.L.E.E.R.A.A.K.E.F.V.E.W.L.E.A.G.G.P.S.S.G.[am]}|PEPTIDE2{[CCCCCCCCCCCCCCCC(=O)[*:2]].[gGlu].[gGlu]}$PEPTIDE1,PEPTIDE2,10:R3-3:R2$$$V2.0; N-terminus assumed
SMILES: CCCCCCCCCCCCCCCC(=O)N[C@@H](CCC(=O)N[C@@H](CCC(=O)NCCCC[C@H](NC(=O)[C@H](CC(=O)O)NC(=O)[C@H](CO)NC(=O)[C@@H](NC(=O)[C@H](Cc1ccccc1)NC(=O)[C@@H](NC(=O)CNC(=O)[C@H](CCC(N)=O)NC(=O)C(C)(C)NC(=O)[C@@H](N)Cc1c[nH]cn1)[C@@H](C)O)[C@@H](C)O)C(=O)N[C@@H](CO)C(=O)N[C@@H](CCCCN)C(=O)N[C@@H](Cc1ccc(O)cc1)C(=O)N[C@@H](CC(C)C)C(=O)N[C@@H](CCC(=O)O)C(=O)N[C@@H](CCC(=O)O)C(=O)N[C@@H](CCCNC(=N)N)C(=O)N[C@@H](C)C(=O)N[C@@H](C)C(=O)N[C@@H](CCCCN)C(=O)N[C@@H](CCC(=O)O)C(=O)N[C@@H](Cc1ccccc1)C(=O)N[C@H](C(=O)N[C@@H](CCC(=O)O)C(=O)N[C@@H](Cc1c[nH]c2ccccc12)C(=O)N[C@@H](CC(C)C)C(=O)N[C@@H](CCC(=O)O)C(=O)N[C@@H](C)C(=O)NCC(=O)NCC(=O)N1CCC[C@H]1C(=O)N[C@@H](CO)C(=O)N[C@@H](CO)C(=O)NCC(N)=O)C(C)C)C(=O)O)C(=O)O
EC50 of GC receptor mediated cAMP production [2]: 0.0352 nM

B4: Compound 4 (peptide)
peptide: B2 peptide with E15X, A24X, K27E, E28A
HELM: PEPTIDE1{H.[Aib].Q.G.T.F.T.S.D.K.S.K.Y.L.E.E.R.A.A.K.E.F.V.A.W.L.E.A.G.G.P.S.S.G.[am]}|PEPTIDE2{[CCCCCCCCCCCCCCCC(=O)[*:2]].[gGlu].[gGlu]}$PEPTIDE1,PEPTIDE2,10:R3-3:R2$$$V2.0; N-terminus assumed
SMILES: CCCCCCCCCCCCCCCC(=O)N[C@@H](CCC(=O)N[C@@H](CCC(=O)NCCCC[C@H](NC(=O)[C@H](CC(=O)O)NC(=O)[C@H](CO)NC(=O)[C@@H](NC(=O)[C@H](Cc1ccccc1)NC(=O)[C@@H](NC(=O)CNC(=O)[C@H](CCC(N)=O)NC(=O)C(C)(C)NC(=O)[C@@H](N)Cc1c[nH]cn1)[C@@H](C)O)[C@@H](C)O)C(=O)N[C@@H](CO)C(=O)N[C@@H](CCCCN)C(=O)N[C@@H](Cc1ccc(O)cc1)C(=O)N[C@@H](CC(C)C)C(=O)N[C@@H](CCC(=O)O)C(=O)N[C@@H](CCC(=O)O)C(=O)N[C@@H](CCCNC(=N)N)C(=O)N[C@@H](C)C(=O)N[C@@H](C)C(=O)N[C@@H](CCCCN)C(=O)N[C@@H](CCC(=O)O)C(=O)N[C@@H](Cc1ccccc1)C(=O)N[C@H](C(=O)N[C@@H](C)C(=O)N[C@@H](Cc1c[nH]c2ccccc12)C(=O)N[C@@H](CC(C)C)C(=O)N[C@@H](CCC(=O)O)C(=O)N[C@@H](C)C(=O)NCC(=O)NCC(=O)N1CCC[C@H]1C(=O)N[C@@H](CO)C(=O)N[C@@H](CO)C(=O)NCC(N)=O)C(C)C)C(=O)O)C(=O)O
EC50 of GC receptor mediated cAMP production [2]: 0.024 nM

B5: Compound 11 (peptide)
peptide: HXQGTFTSDKSKYLXEKRAKEFIXWLEAGGPSSG
HELM: PEPTIDE1{H.[Aib].Q.G.T.F.T.S.D.K.S.K.Y.L.E.E.K.R.A.K.E.F.I.E.W.L.E.A.G.G.P.S.S.G.[am]}|PEPTIDE2{[CCCCCCCCCCCCCCCC(=O)[*:2]].[gGlu].[gGlu]}$PEPTIDE1,PEPTIDE2,10:R3-3:R2$$$V2.0; N-terminus assumed
SMILES: CCCCCCCCCCCCCCCC(=O)N[C@@H](CCC(=O)N[C@@H](CCC(=O)NCCCC[C@H](NC(=O)[C@H](CC(=O)O)NC(=O)[C@H](CO)NC(=O)[C@@H](NC(=O)[C@H](Cc1ccccc1)NC(=O)[C@@H](NC(=O)CNC(=O)[C@H](CCC(N)=O)NC(=O)C(C)(C)NC(=O)[C@@H](N)Cc1c[nH]cn1)[C@@H](C)O)[C@@H](C)O)C(=O)N[C@@H](CO)C(=O)N[C@@H](CCCCN)C(=O)N[C@@H](Cc1ccc(O)cc1)C(=O)N[C@@H](CC(C)C)C(=O)N[C@@H](CCC(=O)O)C(=O)N[C@@H](CCC(=O)O)C(=O)N[C@@H](CCCCN)C(=O)N[C@@H](CCCNC(=N)N)C(=O)N[C@@H](C)C(=O)N[C@@H](CCCCN)C(=O)N[C@@H](CCC(=O)O)C(=O)N[C@@H](Cc1ccccc1)C(=O)N[C@H](C(=O)N[C@@H](CCC(=O)O)C(=O)N[C@@H](Cc1c[nH]c2ccccc12)C(=O)N[C@@H](CC(C)C)C(=O)N[C@@H](CCC(=O)O)C(=O)N[C@@H](C)C(=O)NCC(=O)NCC(=O)N1CCC[C@H]1C(=O)N[C@@H](CO)C(=O)N[C@@H](CO)C(=O)NCC(N)=O)[C@@H](C)CC)C(=O)O)C(=O)O
EC50 of GLP-1 receptor mediated cAMP production [1]: 3.05 nM | EC50 of GC receptor mediated cAMP production [2]: 1.73 nM
